{
  "source": "patent US12194057B2",
  "about": "“NXTAR-derived oligonucleotides and uses thereof” (Washington University, priority 2020, dated 2025)",
  "molecules": {"B1": {"name": "NXTAR: long non-coding RNA, 1476-nt transcript (SEQ ID NO: 58), expressed from retroviral or plasmid constructs (nucleic acid, listed as Homo sapiens)", "chain": "GGAAAAGGAAGGCTGCACAGAAGAACTGGCATTTGTGTTCTGCCTACAAAGCTGAAAAGGATTTCACCCAAATCAGGGAAGATCAGCCTTATGAGGTGGATATTATTGCCACAATAATTTTCCAGATGAAAAATGGAGGCCCAGAGATGTTAAGGAATTTGCCCAAGATCATGAAAAGACACTCTCCCCTATTGAGATGTCATGCAAGGATCAGTGCTGTGTGAAAATCCACATGAAGCAGGAAATGCAGGTGGTGGTGTCCAATCTGATTTCAAGATCTGAGAAGCTGTGCACTGCCTGAAAGGTATCTATTTAAGGTGTCACCAGACTCCTGCTCCACTCCTGCCCAAGGCCCAGCCCATCCAAGAGCAAAAGGCAAGTGGTGTTACAACCTTGGGATTTCCTGTATCTGCCCTCTTGCGGATAGCAGGACAGAGTCACAGCTGCATTAAATTCGCTTAAGACTTATTGAGACACTTCAACACTTCAACAACGACCTGTGAGATTAAGATTATTATTTTAAATTTACAGAAGGGGAAACTAAGAATTATAGACATGAAGTGACTCACCTATGACCACCTGGTGATAGAACCAGGACTAGAGCTCAGGTATGAAGATTTCTGGGGGAGTCCCTGAAAAAAAGGCTCCATATGGAATTACAATGTGGAAAAGGCCAAGGCCTCACCAACCCTTTTCTCTTCAACACCTGGATCCCTAAGTCCTTATTCGTAACCTCCTCTTTGGACAAGGTTTTGGTAGACAAAGCCAGAGCCTCTTGCACTGAGAAAGACAAATTCTCCTCTTGCAGTGAACCACAGGTAAATGCTCCAATAGAGAGTCCAAGCCAAACCTCCGGGTGTTATTCATGACCCAGGCAAGTCTGCTTTCTCATTCCCCCTATCTCTAGACCGTTTTCCATTTGGGCTTCCTTTTCTTCTTTTATCCTCAAAGAAACATGTTTCCTTCTAGTAGGTTTGGCTGCCACCACTAGGGTCCTGGCTACAACTGGCCCTCAGGTAACTCTCTCACCTCTGAGTTGGATAGTATCCTCTCTCGTCCCCATACACAAGTGTTTCTCTTCCCAGACACCTTCCTTACACAATTTCCCATTTCTTTCTCATCTCACCCTTGCTTTAATCAACATAGTTCTTTCCCCTGAGATTACTCTTCAGCCTTTCTTGTTGAAGCACTGCCCAGTGGTTCTCTTGGGATTTCCATTTCTCTCCCCTCAGCTCTCTTGGTACCAAATTCTGTAAGCTTCTCTGGTTTTTGGTTTCTCTTCCTTCTTTTCCTTCCAGGCAACATTTACTCAATCTAGGCTTGGATGATCAGGTACTTCTGCCAGCCTGCCCACTAGGGAACTCTGGGCTAGGAATATGTCTCAATGGCACCATTATATTTGGAAGGACGCTTCTGTATTTACACTGAACACACTAAAATACTAAACTTGAAGCCAAAATCCCCTCTCTGGCTCCA"}},
  "key": {"purified EZH2": {"target": "T1, purified EZH2 (Homo sapiens, UniProt Q15910)", "T1 construct": "made in house", "T1 sequence (Q15910 whole entry)": "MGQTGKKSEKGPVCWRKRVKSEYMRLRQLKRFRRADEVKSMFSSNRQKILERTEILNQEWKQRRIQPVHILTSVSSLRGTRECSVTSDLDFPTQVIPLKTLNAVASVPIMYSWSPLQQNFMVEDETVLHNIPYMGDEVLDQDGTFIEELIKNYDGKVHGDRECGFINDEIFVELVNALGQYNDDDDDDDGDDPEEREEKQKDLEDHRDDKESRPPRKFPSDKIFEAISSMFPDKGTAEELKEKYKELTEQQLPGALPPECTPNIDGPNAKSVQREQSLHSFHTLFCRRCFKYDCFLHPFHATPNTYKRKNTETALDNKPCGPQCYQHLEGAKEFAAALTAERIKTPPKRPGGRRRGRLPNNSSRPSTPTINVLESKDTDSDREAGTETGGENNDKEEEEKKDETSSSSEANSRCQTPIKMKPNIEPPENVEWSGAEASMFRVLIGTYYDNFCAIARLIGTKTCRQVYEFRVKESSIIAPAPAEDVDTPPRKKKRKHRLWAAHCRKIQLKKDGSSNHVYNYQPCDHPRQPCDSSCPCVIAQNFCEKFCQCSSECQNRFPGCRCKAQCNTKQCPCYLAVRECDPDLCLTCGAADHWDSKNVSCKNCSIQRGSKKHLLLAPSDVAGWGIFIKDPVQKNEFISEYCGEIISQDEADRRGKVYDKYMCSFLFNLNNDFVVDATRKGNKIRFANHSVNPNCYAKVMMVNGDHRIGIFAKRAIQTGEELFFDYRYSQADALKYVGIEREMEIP", "test": "EZH2 pull-down assay with purified 6xHis-tagged EZH2", "type": "binding", "conditions": "immobilized on streptavidin beads", "protocol": "1 mg of lysate prepared from HEK293 cells transfected with 6λHis-tagged-EZH2 plasmid was incubated with Ni-NTA agarose beads (Qiagene) overnight at 4° C. Beads were washed three times using wash buffer (20 mM Tris/HCl, 200 mM NaCl, 5 mM imidazole; pH 7.5) and purified EZH2 was eluted using elution buffer (20 mM Tris/HCl, 200 mM NaCl, 200 mM imidazole; pH 7.5).\nLncRNA-Protein binding study was performed as described earlier (see e.g., Zhao, Wang, and Hu (2021) Methods Mol Bio). Briefly, 10 pmol Biotinylated NXTAR-N5 oligo or Biotinylated Globin oligos were diluted in 40 ul RNA structure buffer, heated at 90° C. for 2 min, immediately transferred onto ice for 2 min and then kept at RT for further 20 mins. 10 uM of purified EZH2 protein was added to these biotinylated oligos with 500 ul of NETN buffer and the tubes were placed at 4° C. for 2 hrs. Post washing with cold NETN buffer, streptavidin magnetic beads (60 ul) were added into prepared oligo-protein mix and incubated at 4° C. overnight. Beads were washed 3 times with NETN buffer, followed by western blot analysis. […]"}, "EZH2": {"target": "T2, EZH2 (Homo sapiens, UniProt Q15910)", "T2 construct": "endogenous in cells; host or cells: VCaP cells (some retrovirally infected to over-express NXTAR lncRNA)", "T2 sequence (Q15910 whole entry)": "as above", "T2 sequence (O75530 whole entry partner)": "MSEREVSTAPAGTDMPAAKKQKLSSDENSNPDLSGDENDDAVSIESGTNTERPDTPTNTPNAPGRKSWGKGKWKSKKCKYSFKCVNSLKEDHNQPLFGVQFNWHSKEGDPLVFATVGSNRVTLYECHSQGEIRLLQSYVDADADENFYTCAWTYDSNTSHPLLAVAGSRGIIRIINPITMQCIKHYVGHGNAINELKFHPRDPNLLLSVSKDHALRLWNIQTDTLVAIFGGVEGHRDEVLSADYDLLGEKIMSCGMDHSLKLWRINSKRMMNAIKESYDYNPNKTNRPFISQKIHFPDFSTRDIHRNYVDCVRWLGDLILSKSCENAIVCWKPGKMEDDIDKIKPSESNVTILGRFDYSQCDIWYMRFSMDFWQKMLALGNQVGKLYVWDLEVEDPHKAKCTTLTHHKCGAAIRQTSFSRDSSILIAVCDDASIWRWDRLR", "T2 sequence (Q15022 whole entry partner)": "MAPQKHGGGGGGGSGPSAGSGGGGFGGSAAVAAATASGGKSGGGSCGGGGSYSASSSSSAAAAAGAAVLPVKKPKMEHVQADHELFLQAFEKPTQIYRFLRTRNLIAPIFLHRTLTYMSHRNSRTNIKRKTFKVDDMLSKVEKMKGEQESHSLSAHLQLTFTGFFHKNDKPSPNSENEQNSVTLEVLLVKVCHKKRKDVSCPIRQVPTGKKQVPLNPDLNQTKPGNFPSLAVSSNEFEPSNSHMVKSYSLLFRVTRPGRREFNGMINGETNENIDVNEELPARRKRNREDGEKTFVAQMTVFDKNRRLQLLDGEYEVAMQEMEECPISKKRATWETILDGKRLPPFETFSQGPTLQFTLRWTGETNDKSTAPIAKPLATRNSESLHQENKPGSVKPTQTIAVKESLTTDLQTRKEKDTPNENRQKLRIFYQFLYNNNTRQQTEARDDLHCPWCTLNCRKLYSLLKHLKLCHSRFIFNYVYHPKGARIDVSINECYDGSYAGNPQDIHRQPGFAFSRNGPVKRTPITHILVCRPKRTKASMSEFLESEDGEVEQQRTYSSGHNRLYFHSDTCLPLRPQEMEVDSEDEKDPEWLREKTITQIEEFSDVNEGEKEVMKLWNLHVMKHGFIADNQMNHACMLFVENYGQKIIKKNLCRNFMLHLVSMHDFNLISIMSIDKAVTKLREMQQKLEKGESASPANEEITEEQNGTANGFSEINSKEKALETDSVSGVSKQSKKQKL", "T2 sequence (Q09028 whole entry partner)": "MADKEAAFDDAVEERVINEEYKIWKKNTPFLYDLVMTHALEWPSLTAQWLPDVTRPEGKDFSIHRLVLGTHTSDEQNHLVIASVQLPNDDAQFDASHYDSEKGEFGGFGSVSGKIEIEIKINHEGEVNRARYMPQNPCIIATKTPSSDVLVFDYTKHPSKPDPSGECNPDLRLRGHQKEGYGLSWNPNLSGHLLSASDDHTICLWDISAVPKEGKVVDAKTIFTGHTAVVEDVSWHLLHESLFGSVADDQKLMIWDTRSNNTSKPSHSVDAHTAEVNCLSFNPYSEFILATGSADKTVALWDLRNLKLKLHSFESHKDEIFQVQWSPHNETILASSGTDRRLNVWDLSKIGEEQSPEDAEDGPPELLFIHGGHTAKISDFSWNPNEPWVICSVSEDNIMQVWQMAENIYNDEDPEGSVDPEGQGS", "test": "Pull-down from VCaP cell lysates with biotinylated oligos, immunoblotting for EZH2", "type": "binding", "conditions": "VCaP cells with retroviral expression of NXTAR", "protocol": "The biotinylated oligonucleotides were incubated with lysates (2 h), and the lysates were incubated with streptavidin magnetic beads overnight. Beads attached to RNAs were divided equally and processed for either RNA isolation or western blotting. For RNA isolation, beads were washed three times and then separated using proteinase K treatment. RNA was then isolated and purified, and DNA was digested in the process. The real-time quantitative RT-PCR was performed on isolated RNA to check the efficiency of pull-down of NXTAR RNA. The remaining beads were heated at 80° C. for 5 min in loading buffer, followed by western blotting. The blots were probed with EZH2 (CST, 5246S; RRID:AB_10694683) antibody and Actin (SCBT, sc-47778; RRID:AB_2714189) was used as the loading control.\nBiotin-labeled NXTAR-N5 (complementary to the AR promoter) and globin oligos were synthesized (IDT) (see e.g., TABLE 1). ChIRP was performed using lysate from formaldehyde-fixed VCaP cells and oligos that were immobilized to streptavidin beads, as described earlier (see e.g., Chu and Chang (2016) Methods Mol Bio). The amount of the chromatin DNA was determined by real-time PCR. For detection of NXTAR-N5/EZH2 binding, biotin-labeled NXTAR-N5 oligo and control globin oligo were incubated with VCaP cell lysates and were subjected to chromatin pull-down, followed by immunoblotting with EZH2 antibodies."}, "VCaP cells": {"tested_on": "VCaP cells", "test": "Xenograft of VCaP cells infected with pBABE vector or NXTAR in SCID mice", "type": "in vivo", "protocol": "All animal experiments were performed using the standards for humane care in accordance with the National Institutes of Health Guide for the Care and Use of Laboratory Animals. Mice breeding and colony maintenance were performed according to IACUC protocols approved by Washington University in St. Louis. 1.5×10^6 VCaP cells were suspended in 200 μL of PBS with 50% Matrigel (Corning, Cat #354428) and implanted subcutaneously into the dorsal flank of castrated 6-week-old male SCID mice (Charles River, Strain code: 236). Once the tumors reached approximately 100 mm^3, mice were randomized and injected subcutaneously with (R)-9b mesylate salt suspended in 6% Captisol (Cydex Pharmaceuticals). Tumor volumes were measured twice weekly using calipers. At the end of the study, all mice were humanely euthanized and tumors were extracted and weighed. To assess the role of NXTAR in tumor growth, 1.5×10^6 VCaP cells that were either infected with pBABE vector or NXTAR and selected with puromycin (Gibco, Cat #A1113803), implanted and growth of tumors was recorded. The personnel taking tumor volume measurement were blinded for the treatment groups.\nTo examine the direct effect of NXTAR restoration on prostate tumor growth, equal numbers of VCaP infected with either pBABE vector or NXTAR constructs were injected in the SCID mice. Palpable tumors were formed around week 5 that were measured twice a week thereafter."}, "AR promoter": {"tested_on": "AR promoter", "test": "ChIP-qPCR (EZH2, H3K27me3) at AR promoter", "type": "cell-based, human", "protocol": "Chromatin immunoprecipitation (ChIP), quantitative RT-PCR, and ChIP-qPCR were performed as described earlier (see e.g., Mahajan et al. (2017) Cancer Cell; Mahajan et al. (2012) J Biol Chem; and Mahajan et al. (2012) Nat Struct Mol Bio). Briefly, cells were either transfected, infected or treated with various inhibitors (R)-9b; CPTH2 (Sigma, Cat #C9873)], fixed in formaldehyde, lysed and ChIP was performed with antibodies recognizing AR (SCBT, sc-7305; RRID:AB_626671), GCN5 (SCBT, SC-365321; RRID:AB_10846182), H3K14ac (CST, 7627S; RRID:AB_10839410), H3K27me3 (CST, 9733S; RRID:AB 2616029), NCOR1 (Bethyl Laboratories, Cat #A301-145A; RRID:AB_873085), EZH2 (CST, 5246S; RRID:AB_10694683), or IgG (Abcam, ab2410; RRID:AB_303052), immobilized on Protein A magnetic beads (Biorad, Cat #161-4013). The complexes were washed with ChIP buffers, eluted with elution buffer (Active Motif, Cat #53008), and subjected to reverse crosslinking, followed by RNase and proteinase K treatments. A part of soluble chromatin was processed separately at the same time and designated as input DNA. Treated ChIP DNA and input DNAs were purified using PCR-DNA purification columns (Qiagen, Cat #28106). The amount of immunoprecipitated DNA was determined by real-time PCR."}},
  "data": [
    {"molecule": "B1", "values": [
      {"measurement": "binding to purified EZH2", "setting": "purified EZH2", "result": "considerable binding"},
      {"measurement": "EZH2 binding in RNA pull-down", "setting": "EZH2", "result": "EZH2 could bind to NXTAR RNA"},
      {"measurement": "tumor growth", "setting": "VCaP cells; NXTAR overexpressing vs vector-expressing VCaP cells", "result": "significant reduction in tumor growth"},
      {"measurement": "AR protein levels in tumors", "setting": "VCaP cells; immunoblotting of tumor lysates", "result": "significant reduction in AR protein levels"},
      {"measurement": "tumor burden", "setting": "VCaP cells; tumor weights and volume", "result": "significantly reduced"},
      {"measurement": "EZH2 binding at the AR promoter", "setting": "AR promoter; LNCaP cells overexpressing NXTAR", "result": "significant binding"},
      {"measurement": "deposition of H3K27me3 marks in the AR promoter", "setting": "AR promoter; LNCaP, 22Rv1 and VCaP cells, NXTAR restoration", "result": "significant increase in deposition of H3K27me3 marks"}
    ]}
  ]
}
